This is an account of results in paper PMC7832040 (Science translational medicine, 2020).

The target in assay [1] is T1, CD206 (Homo sapiens, UniProt P22897).
T1 sequence (P22897 19-1456): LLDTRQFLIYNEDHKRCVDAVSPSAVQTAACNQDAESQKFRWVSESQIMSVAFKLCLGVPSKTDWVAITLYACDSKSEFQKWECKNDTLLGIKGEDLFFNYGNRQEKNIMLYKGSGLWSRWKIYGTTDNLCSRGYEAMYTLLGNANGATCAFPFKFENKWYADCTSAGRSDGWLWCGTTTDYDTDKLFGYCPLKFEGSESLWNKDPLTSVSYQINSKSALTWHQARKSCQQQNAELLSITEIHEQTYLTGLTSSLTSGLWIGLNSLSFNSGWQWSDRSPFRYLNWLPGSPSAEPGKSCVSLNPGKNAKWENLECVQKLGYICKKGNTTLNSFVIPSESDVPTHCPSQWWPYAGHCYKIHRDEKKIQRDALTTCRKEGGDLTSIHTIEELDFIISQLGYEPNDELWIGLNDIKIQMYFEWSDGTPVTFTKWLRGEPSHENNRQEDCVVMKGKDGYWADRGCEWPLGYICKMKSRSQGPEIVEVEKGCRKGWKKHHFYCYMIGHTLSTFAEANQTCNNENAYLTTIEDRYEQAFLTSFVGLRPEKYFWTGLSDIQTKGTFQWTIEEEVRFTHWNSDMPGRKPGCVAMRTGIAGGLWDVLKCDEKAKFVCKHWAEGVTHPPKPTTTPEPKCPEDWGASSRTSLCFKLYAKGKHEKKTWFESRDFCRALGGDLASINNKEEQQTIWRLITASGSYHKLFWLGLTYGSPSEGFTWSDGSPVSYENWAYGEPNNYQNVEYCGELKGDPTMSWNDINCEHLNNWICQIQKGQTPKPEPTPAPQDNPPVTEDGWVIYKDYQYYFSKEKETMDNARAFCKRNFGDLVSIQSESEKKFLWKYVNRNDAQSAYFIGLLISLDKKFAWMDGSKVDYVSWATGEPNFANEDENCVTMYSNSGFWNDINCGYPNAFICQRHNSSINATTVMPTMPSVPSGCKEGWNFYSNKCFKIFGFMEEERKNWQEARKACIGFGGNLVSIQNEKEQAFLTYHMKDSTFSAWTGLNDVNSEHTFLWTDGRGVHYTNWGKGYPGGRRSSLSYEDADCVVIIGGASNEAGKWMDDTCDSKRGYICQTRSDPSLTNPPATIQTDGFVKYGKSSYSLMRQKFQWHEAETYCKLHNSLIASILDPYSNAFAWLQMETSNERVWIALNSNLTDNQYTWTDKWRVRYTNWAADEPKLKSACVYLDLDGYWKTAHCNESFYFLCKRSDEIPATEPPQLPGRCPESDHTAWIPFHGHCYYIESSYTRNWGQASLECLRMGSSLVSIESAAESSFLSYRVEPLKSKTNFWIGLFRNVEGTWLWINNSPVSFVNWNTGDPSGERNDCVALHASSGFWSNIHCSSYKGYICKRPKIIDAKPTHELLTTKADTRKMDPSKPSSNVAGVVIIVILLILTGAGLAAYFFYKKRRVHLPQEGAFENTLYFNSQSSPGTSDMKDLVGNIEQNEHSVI
The conditions noted are these: xenotransplanted tumors; ref [39]–[41]; cited from earlier work.

Assay [2] concerns the target mannose receptor CD206, human, recombinant (human) (UniProt P22897). The assay can be described thus: MST.
The target in assay [3] is murine CD206 (murine) (UniProt Q61830). As to the kind of experiment: MST.
Sequence of murine CD206 (murine) (Q61830 20-1456): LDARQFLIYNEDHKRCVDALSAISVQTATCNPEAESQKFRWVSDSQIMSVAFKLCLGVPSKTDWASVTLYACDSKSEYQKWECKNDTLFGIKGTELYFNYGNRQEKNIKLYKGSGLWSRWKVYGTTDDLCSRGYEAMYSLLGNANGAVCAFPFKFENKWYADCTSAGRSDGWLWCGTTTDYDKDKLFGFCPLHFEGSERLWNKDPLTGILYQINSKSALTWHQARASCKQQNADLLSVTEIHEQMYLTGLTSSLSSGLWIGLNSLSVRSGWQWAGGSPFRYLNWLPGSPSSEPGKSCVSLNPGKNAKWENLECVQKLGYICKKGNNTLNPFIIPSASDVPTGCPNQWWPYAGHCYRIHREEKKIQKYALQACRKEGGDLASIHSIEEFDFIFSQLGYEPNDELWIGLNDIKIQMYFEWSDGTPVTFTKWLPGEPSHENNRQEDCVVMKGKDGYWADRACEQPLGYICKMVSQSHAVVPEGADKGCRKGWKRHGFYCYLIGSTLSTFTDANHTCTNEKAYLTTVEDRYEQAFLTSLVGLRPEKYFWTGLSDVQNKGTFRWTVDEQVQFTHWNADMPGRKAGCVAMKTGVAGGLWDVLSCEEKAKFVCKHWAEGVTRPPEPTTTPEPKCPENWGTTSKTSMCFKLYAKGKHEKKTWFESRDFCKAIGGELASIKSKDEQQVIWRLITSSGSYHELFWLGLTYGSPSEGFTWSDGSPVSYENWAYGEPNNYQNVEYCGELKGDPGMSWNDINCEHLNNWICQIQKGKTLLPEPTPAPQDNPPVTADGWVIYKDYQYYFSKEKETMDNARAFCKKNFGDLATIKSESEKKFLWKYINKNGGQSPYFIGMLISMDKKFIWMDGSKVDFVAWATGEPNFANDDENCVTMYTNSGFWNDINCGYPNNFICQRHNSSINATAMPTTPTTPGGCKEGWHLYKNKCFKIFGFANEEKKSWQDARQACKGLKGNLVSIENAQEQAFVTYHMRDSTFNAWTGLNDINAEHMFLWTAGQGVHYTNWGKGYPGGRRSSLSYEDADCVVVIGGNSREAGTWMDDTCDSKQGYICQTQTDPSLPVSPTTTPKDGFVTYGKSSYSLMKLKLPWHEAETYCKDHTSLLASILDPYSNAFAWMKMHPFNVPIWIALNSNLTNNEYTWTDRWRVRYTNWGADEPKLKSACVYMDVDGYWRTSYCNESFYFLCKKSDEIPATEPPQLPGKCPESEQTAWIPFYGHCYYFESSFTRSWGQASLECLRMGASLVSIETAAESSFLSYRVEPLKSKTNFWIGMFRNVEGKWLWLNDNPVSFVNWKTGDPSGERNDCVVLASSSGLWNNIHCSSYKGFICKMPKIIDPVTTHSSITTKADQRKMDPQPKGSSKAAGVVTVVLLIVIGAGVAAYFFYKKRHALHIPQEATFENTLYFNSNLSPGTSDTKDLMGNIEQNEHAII
In assay [4] the target is endogenous CD206 in human M2-polarized macrophages (human (endogenous in M2-polarized macrophages)) (UniProt P22897). The assay can be described thus: cellular thermal shift assay.
The target of assay [5] is endogenous CD206 in murine M2-polarized macrophages (BMDMs) (mouse (endogenous in M2 BMDMs)) (UniProt Q61830). As to the kind of experiment: cellular thermal shift assay.
Sequence of endogenous CD206 in murine M2-polarized macrophages (BMDMs) (mouse (endogenous in M2 BMDMs)) (Q61830 20-1456): as above

For CSPGAKVRC [UNO], the “delivery of nanoparticles to tumors” value in assay [1] was “able to carry drug-loaded nanoparticles targeting CD206 into xenotransplanted tumors”.
In the case of RP-182 (peptide), the Kd came to 8 µM in assay [2] and 19 µM in assay [3]. Besides, the thermostability shift of CD206 (CETSA) in assay [4] and in assay [5] was over 4 ° in each case.

The term Kd denotes the concentration at which binding is half-saturated.
